The source of these data is publication PMC4383324.

Assay [1] concerns the target MyrNCS-1 His6 (N-terminally myristoylated NCS-1 with a carboxyl terminal His6-tag) (UniProt P62166). As to the kind of experiment: SEC-MALS. Background: Size exclusion chromatography separates by hydrodynamic size, large species first.
For assay [2] the target is unchanged. As to the kind of experiment: AUC.
Assay [3] shares this target. As to the kind of experiment: micro-batch multi-angle laser light scattering.

Regarding “MyrNCS-1 His6 (N-terminally myristoylated NCS-1 with a carboxyl terminal His6-tag) (from UniProt P62166 1-190) (natural protein)”, the stoichiometry N in assay [1] was 2. Also, the Kd turned out to be 2 µM in assay [2] and 10 µM in assay [3].

By stoichiometry N is commonly meant the number of molecules, sites or subunits per partner or assembly. A word on the Kd: it is a measure of binding affinity in units of concentration. The low end stands for higher affinity, the high end for lower affinity.
